Test results reported in patent US20140322759.
Substitutions are numbered along the chain they refer to.

Experiments:
Assay in all cases: EMSA
[1] = target: T1, phi29 DNA polymerase F526L F526L (Bacillus phage phi29) (UniProt P03680); settings: SD 24.2; unit not given (μM in assay); pH 7.9, 66 mM K-acetate, 30 C
T1 sequence: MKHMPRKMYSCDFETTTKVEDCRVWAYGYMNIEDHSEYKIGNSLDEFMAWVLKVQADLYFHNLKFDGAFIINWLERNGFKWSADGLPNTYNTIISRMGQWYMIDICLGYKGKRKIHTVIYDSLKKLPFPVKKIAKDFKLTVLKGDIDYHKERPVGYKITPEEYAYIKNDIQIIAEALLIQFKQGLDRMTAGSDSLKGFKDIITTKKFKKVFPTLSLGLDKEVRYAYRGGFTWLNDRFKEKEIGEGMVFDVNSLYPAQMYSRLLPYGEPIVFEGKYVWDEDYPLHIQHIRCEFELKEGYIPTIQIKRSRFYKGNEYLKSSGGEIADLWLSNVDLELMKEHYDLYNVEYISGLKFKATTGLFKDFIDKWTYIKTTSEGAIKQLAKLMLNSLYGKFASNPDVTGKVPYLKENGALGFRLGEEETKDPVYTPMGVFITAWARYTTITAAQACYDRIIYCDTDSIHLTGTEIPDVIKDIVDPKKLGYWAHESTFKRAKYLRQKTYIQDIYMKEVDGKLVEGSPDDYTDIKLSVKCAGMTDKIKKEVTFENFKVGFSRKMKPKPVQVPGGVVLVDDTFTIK

[2] = target: T2, phi29 DNA polymerase M97T M97T (Bacillus phage phi29) (UniProt P03680); settings: SD 2.5; unit not given (μM in assay); pH 7.9, 66 mM K-acetate, 30 C
T2 sequence: T1 sequence with M97T, L526F

[3] = target: T3, phi29 DNA polymerase G197D G197D (Bacillus phage phi29) (UniProt P03680); settings: SD 25.7; unit not given (μM in assay); pH 7.9, 66 mM K-acetate, 30 C
T3 sequence: T1 sequence with G197D, L526F

[4] = target: T4, phi29 DNA polymerase V51A V51A (Bacillus phage phi29) (UniProt P03680); settings: SD 10.8; unit not given (μM in assay); pH 7.9, 66 mM K-acetate, 30 C
T4 sequence: T1 sequence with V51A, L526F

“GATCACAGTGAGTAC / TCTATTGTACTCACTGTGATC [15-mer/21-mer primer/template]” was tested, and the Kd [1] was 53 µM, the Kd [2] was 37 µM and the Kd [3] was 51 µM. It also gave a Kd [4] of 52 µM.
